Reference: article PMC9340162, “The Central Circadian Clock Protein TaCCA1 Regulates Seedling Growth and Spike Development in Wheat (Triticum aestivum L.)”

B1: DAP-2 (TraesCS1D02G295200 promoter) (dsDNA)
DNA 1: AAATAGAAAATTACTGATATTTCATCCTTGTGTGAT
DNA 2: ATCACACAAGGATGAAATATCAGTAATTTTCTATTT
B2: DAP-1 (TraesCS1D02G226100 promoter, CHLG) (dsDNA)
DNA 1: TTATATGCCTATATGATATTATGATTTATTTGGTTT
DNA 2: AAACCAAATAAATCATAATATCATATAGGCATATAA
B3: DAP-3 (TraesCS2B02G491700 promoter) (dsDNA)
DNA 1: CTTCAGATTTGTTGATATTTTCATATTGCAGACAT
DNA 2: ATGTCTGCAATATGAAAATATCAACAAATCTGAAG
B4: DAP-4 (TraesCS3B02G186700 promoter) (dsDNA)
DNA 1: AATAGAAAATTACTGATATTTCATCCTTATGAGATT
DNA 2: AATCTCATAAGGATGAAATATCAGTAATTTTCTATT

Tests used:
[1] = target: MBP-TaCCA1-7D fusion protein (Triticum aestivum (bread wheat)); test: BLI; ForteBio Octet RED 96e; streptavidin (SA) biosensors loaded with 10.0 ug/ml biotinylated recombinant TaCCA1-7D; TaCCA1-7A or TaCCA1-7B in solution at 10-630 nM, low to high concentration; KD as the ratio of dissociation and association rate constants
MBP-TaCCA1-7D [2] = target: T1, MBP-TaCCA1-7D (Triticum aestivum, UniProt A0A3B6TKA2 1-718); test: BLI; single-digit nM per text; exact value in Table S6 not in material; EMSA: 150 ng protein, 2 pM DIG probe, 10 ul, 1 h on ice, 6% PAGE in 0.5x TBE pH 8.0; BLI: Octet RED96e, SA sensors with biotinylated TaCCA1-7D; buffers not stated; conditions: protein: recombinant, tags: MBP (pMAL-c2X, N-terminal), biotinylated for BLI, blunt
T1 sequence (A0A3B6TKA2 entry or part of it): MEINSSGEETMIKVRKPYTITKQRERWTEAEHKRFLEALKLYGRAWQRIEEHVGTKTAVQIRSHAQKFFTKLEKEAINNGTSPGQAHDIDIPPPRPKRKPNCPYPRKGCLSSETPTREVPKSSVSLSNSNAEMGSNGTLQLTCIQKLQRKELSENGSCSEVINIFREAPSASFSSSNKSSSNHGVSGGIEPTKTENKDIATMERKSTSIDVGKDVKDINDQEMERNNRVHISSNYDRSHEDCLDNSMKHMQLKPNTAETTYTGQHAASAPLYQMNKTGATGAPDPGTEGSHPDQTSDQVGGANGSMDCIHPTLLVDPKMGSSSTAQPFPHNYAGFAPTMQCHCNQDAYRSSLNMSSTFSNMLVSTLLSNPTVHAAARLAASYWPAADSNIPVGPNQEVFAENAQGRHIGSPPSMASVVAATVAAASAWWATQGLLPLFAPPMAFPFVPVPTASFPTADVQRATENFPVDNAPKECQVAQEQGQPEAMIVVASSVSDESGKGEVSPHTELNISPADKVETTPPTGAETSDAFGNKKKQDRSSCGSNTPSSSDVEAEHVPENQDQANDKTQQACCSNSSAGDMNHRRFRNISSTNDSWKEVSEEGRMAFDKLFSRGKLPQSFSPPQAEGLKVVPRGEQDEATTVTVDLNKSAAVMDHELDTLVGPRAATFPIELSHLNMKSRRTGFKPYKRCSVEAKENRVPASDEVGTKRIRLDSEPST

MBP-TaCCA1-7D [3] = target: T1, MBP-TaCCA1-7D; test: BLI; kon 1.35E+05 1/Ms; koff 2.42E-04 1/s; EMSA: 150 ng protein, 2 pM DIG probe, 10 ul, 1 h on ice, 6% PAGE in 0.5x TBE pH 8.0; BLI: Octet RED96e, SA sensors with biotinylated TaCCA1-7D; buffers not stated; conditions: protein: recombinant; tags: MBP (pMAL-c2X, N-terminal); biotinylated for BLI; label: 5' biotin; blunt
[4] = label: 5' biotin (BLI), DIG (EMSA)

Row | Molecule | Kd [1] [nM] | koff [1] [s⁻¹] | kon [1] [M⁻¹ s⁻¹] | Kd (MBP-TaCCA1-7D [2]; [4]) [nM] | further results
1 | TaCCA1-7B (natural protein) | 3.6 | 0.00133 | 368000 |  | 
2 | TaCCA1-7A (natural protein) | 27.8 | 0.0012 | 43000 |  | 
3 | B1 |  |  |  | < 10 | 
4 | B2 |  |  |  |  | Kd (MBP-TaCCA1-7D [3]): 1.79 nM
5 | B3 |  |  |  | < 10 | 
6 | B4 |  |  |  |  | Kd (MBP-TaCCA1-7D [2]; label: 5' biotin): < 10 nM
